Data reported in patent US20080254024A1 (Genentech, published 2008).
One block for each binder: values may come before it.

How the values were obtained:
[1] = target: T1, NH2-terminal GD epitope-tagged human EphB2 overexpressed on cells (HT1080-EphB2, SVT2-EphB2) (human, UniProt P29323 19-1055); assay: Scatchard analysis, 125I-labeled MAb 2H9 with unlabeled MAb 2H9 on HT1080-EphB2 cells, on ice
T1 construct: whole, on cells; HT1080-EphB2 cells also carry endogenous EphB2; also called full-length EphB2
T1 sequence (looked up): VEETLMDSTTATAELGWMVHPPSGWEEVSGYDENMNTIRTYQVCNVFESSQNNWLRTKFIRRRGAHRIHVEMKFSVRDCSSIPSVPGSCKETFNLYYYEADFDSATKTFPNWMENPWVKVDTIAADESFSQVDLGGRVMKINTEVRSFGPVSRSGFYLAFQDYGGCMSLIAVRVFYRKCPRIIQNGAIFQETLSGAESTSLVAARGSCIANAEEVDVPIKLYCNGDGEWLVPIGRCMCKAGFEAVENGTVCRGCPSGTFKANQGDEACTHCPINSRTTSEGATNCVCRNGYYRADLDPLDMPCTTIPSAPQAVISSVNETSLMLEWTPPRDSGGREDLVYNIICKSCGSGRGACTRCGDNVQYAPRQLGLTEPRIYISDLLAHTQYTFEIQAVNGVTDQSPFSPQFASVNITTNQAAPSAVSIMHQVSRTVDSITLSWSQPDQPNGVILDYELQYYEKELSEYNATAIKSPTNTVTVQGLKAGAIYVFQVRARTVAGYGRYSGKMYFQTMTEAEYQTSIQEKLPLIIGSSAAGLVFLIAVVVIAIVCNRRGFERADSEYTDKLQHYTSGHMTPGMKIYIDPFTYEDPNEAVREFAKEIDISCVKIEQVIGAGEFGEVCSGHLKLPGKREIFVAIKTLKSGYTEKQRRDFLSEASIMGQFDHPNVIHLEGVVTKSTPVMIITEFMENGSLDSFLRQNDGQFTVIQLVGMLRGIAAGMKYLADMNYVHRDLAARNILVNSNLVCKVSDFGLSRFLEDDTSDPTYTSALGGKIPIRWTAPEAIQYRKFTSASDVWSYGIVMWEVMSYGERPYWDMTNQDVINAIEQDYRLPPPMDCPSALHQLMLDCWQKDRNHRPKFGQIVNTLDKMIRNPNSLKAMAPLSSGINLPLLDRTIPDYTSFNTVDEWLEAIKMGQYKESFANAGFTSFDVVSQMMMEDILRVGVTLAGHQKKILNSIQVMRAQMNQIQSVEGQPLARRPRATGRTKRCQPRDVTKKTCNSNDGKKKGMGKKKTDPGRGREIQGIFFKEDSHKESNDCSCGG

[2] = target: T2, polyhis-tagged human EphB2 (baculovirus-derived His8-tagged EphB2 receptor) (human, UniProt P29323 19-543); assay: SPR (BIAcore 3000), antibody immobilized on CM5 chip, polyhis-tagged EphB2 injected, 1:1 model
T2 construct: extracellular domain; also called polyhis tagged EphB2; purified EphB2 immunogen; not shown: His8 tag
T2 sequence (looked up): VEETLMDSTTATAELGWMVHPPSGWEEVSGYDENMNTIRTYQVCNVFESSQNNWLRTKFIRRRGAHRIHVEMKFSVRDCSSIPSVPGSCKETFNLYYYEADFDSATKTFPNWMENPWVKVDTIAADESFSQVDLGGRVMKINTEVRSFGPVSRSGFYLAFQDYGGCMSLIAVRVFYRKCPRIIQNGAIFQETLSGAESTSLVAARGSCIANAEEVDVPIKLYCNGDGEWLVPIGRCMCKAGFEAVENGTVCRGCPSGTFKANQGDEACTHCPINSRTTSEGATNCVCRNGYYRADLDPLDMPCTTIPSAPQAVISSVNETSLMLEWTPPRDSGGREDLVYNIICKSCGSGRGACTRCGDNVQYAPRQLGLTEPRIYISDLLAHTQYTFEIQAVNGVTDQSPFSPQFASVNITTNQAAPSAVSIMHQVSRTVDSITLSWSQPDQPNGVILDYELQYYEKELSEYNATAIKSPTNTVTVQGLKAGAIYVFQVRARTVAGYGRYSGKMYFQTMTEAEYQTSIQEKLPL
Description: Binding affinity of Mab 2H9 was determined by surface plasmon resonance using Pharmacia BIAcore® 3000 (BIAcore AB, Uppsala, Sweden) at room temperature (see, e.g., Morton et al. (1998) Methods in Enzymology, 295, 268-294). Anti-EphB2 antibodies were immobilized to the sensor chip (CM5) through primary amine groups. The carboxymethylated sensor chip surface matrix was activated by injecting 20 μl of a mixture of 0.025 M N-hydroxysuccinimide and 0.1 M N-ethyl-N′(dimethylaminopropyl) carbodiimide at 5 μl/min. 5-10 μl of 10 μg/ml solution of anti-EphB2 antibodies in 10 mM sodium acetate, pH 4.5, were injected at 5 μl/min. After coupling, unoccupied sites on the chip were blocked by injecting 20 μl of 1M ethanolamine, pH 8.5. The running buffer was PBS containing 0.05% polysorbate 20. For kinetic measurements, two-fold serial dilutions of polyhis-tagged EphB2 in running buffer were injected over the flow cells for 3 minutes at a flow rate of 30 μl/min and the bound polyhis tagged EphB2 was allow to dissociate for 20 minutes. The binding surface was regenerated by injecting 20 μl of 10 mM glycine-HCl (pH 1.5). […] There was no significant non-specific binding of polyhis tagged EphB2 to flow cell one. For calculate apparent binding affinity, data were analyzed using a 1:1 binding model using global fitting. The association and dissociation rate constants were fitted simultaneously (BIAevaluation software).

[3] = target: T1, NH2-terminal GD epitope-tagged human …; assay: Scatchard analysis of 125I-labelled MAb 2H9 competed with unlabelled MAb 2H9 on HT1080-EphB2 cells
[4] = target: T3, endogenous human EphB2 on cells or tissue (HT1080-GD vector control cells, colorectal cancer cell lines, … (human, UniProt P29323 19-1055)); assay: Scatchard analysis, 125I-labeled MAb 2H9 with unlabeled MAb 2H9 on HT1080-GD cells, on ice; HT1080-GD cells, Scatchard analysis
T3 construct: whole, on cells; also called vector control HT1080 cell line
T3 sequence (looked up): T1 sequence (looked up)

[5] = target: T3, endogenous human EphB2 on cells or …; assay: saturation binding on HT1080-GD cells, HRP-conjugated secondary antibody, absorbance at 450 nm
[6] = target: T3, endogenous human EphB2 on cells or …; assay: Scatchard analysis of 125I-labelled MAb 2H9 competed with unlabelled MAb 2H9 on HT1080-GD cells
[7] = target: T1, NH2-terminal GD epitope-tagged human …; assay: saturation binding on HT1080-EphB2 cells, HRP-conjugated secondary antibody, absorbance at 450 nm
[8] = target: T1, NH2-terminal GD epitope-tagged human …; assay: cell-based or functional assay

- Kd [1]: ~4 nM
- Kd [2]: 0.12 nM
- koff [2]: 1.03e-05 s⁻¹
- kon [2]: 82800 M⁻¹ s⁻¹
- Kd [3]: 4.1 nM
- Kd [4]: ~4 nM
- EC50 (read off the curve) [5]: ~0.02 µg/mL
- Kd [6]: 4.4 nM
- EC50 (read off the curve) [7]: ~0.02 µg/mL
- internalization of 125I-labeled MAb 2H9 by HT1080-EphB2 cells after shift to 37° C. for 1 hour [8]: ~2 fold
B1: anti-EphB2 monoclonal antibody produced by hybridoma cell line 2H9.11.14 (ATCC PTA-6606) (antibody, IgG1, V domains shown)
VH: QVQLQQSGAELAKPGASVKMSCKASGYTFTSYWMHWVKQRPGQGLEWIGFINPSTGYTDYNQKFKDKATLTVKSSNTAYMQLSRLTSEDSAVYYCTRRLKLLRYAMDYWGQGTTLTVSA
VL: DIVMTQSPSSLSVSAGEKVTMNCKSSQSLLNSGNQENYLAWYQQKPGQPPKLLIYGASTRESGVPDRFTGSGSGTDFTLTISSVQAEDLAVYYCQNDHSYPFTFGAGTKVEIKR
notes: 125I-labelled in the Scatchard and uptake assays; also called Mab 2H9; MAb 2H9

- EC50 (read off the curve) [7]: ~0.02 µg/mL
B2: immunoconjugate 2H9-MC-vc-PAB-MMAE (antibody, mouse IgG1, V domains shown)
VH: B1 VH
VL: B1 VL
modifications: MC-vc-PAB-MMAE drug-linker covalently coupled to the antibody; sites and chain not stated
notes: also called MMAE-vc-2H9; 2H9-vc-MMAE
- antibody concentration required for half-maximal cell killing (IC50), Cell Titer-Glo viability after 48 h [8]: 0.006 µg/mL
